The target in data set [1] is T1, ScoMcrA-SBD (Streptomyces coelicolor, UniProt Q9L0M9 91-260).
T1 sequence: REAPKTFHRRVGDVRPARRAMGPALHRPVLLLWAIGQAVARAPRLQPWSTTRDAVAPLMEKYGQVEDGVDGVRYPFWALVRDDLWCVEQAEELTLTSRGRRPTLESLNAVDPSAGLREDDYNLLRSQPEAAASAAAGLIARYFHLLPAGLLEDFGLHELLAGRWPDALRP
Nature of the data set: fluorescence polarization. The settings on record: phosphorothioate G(PS)GCC, EMSA: 20 mM Tris-HCl pH 8.5, 200 mM NaCl, 1 mM DTT, 5% glycerol, 4 C, 30 min, FP: 20 mM Tris pH 8.0, 50 mM NaCl, room temperature, 5 nM ….

The subject of data set [2] is ScoMcrA-SBD S187A (Streptomyces coelicolor). The data set can be described thus: EMSA. Particulars: Rp phosphorothioate G(PS)GCC, both strands, EMSA: 20 mM Tris-HCl pH 8.5, 200 mM NaCl, 1 mM DTT, 5% glycerol, 4 C, 30 min, FP: 20 mM Tris pH 8.0, 50 mM NaCl, room temperature, 5 nM …. (A gel shift assay detects complexes by their altered migration in electrophoresis.)
Data set [3] has as its system ScoMcrA-SBD H116I (Streptomyces coelicolor). The data set can be described thus: EMSA. Particulars: Rp phosphorothioate G(PS)GCC, both strands, EMSA: 20 mM Tris-HCl pH 8.5, 200 mM NaCl, 1 mM DTT, 5% glycerol, 4 C, 30 min, FP: 20 mM Tris pH 8.0, 50 mM NaCl, room temperature, 5 nM ….
The subject of data set [4] is ScoMcrA-SBD Y164I (Streptomyces coelicolor). Nature of the data set: EMSA. Particulars: Rp phosphorothioate G(PS)GCC, both strands, EMSA: 20 mM Tris-HCl pH 8.5, 200 mM NaCl, 1 mM DTT, 5% glycerol, 4 C, 30 min, FP: 20 mM Tris pH 8.0, 50 mM NaCl, room temperature, 5 nM ….
Data set [5] relates to ScoMcrA-SBD R190A (Streptomyces coelicolor). The data set can be described thus: EMSA. The settings on record: Rp phosphorothioate G(PS)GCC, both strands, EMSA: 20 mM Tris-HCl pH 8.5, 200 mM NaCl, 1 mM DTT, 5% glycerol, 4 C, 30 min, FP: 20 mM Tris pH 8.0, 50 mM NaCl, room temperature, 5 nM ….
For data set [6], the system named is ScoMcrA-SBD Y164F (Streptomyces coelicolor). Nature of the data set: EMSA. Particulars: Rp phosphorothioate G(PS)GCC, both strands, EMSA: 20 mM Tris-HCl pH 8.5, 200 mM NaCl, 1 mM DTT, 5% glycerol, 4 C, 30 min, FP: 20 mM Tris pH 8.0, 50 mM NaCl, room temperature, 5 nM ….
The subject of data set [7] is ScoMcrA-SBD A168I (Streptomyces coelicolor). Nature of the data set: EMSA. The settings on record: Rp phosphorothioate G(PS)GCC, both strands, EMSA: 20 mM Tris-HCl pH 8.5, 200 mM NaCl, 1 mM DTT, 5% glycerol, 4 C, 30 min, FP: 20 mM Tris pH 8.0, 50 mM NaCl, room temperature, 5 nM ….
The subject of data set [8] is ScoMcrA-SBD R191A (Streptomyces coelicolor). Nature of the data set: EMSA. Particulars: Rp phosphorothioate G(PS)GCC, both strands, EMSA: 20 mM Tris-HCl pH 8.5, 200 mM NaCl, 1 mM DTT, 5% glycerol, 4 C, 30 min, FP: 20 mM Tris pH 8.0, 50 mM NaCl, room temperature, 5 nM ….
Data set [9] relates to ScoMcrA-SBD R117K (Streptomyces coelicolor). The data set can be described thus: fluorescence polarization. Particulars: phosphorothioate G(PS)GCC, EMSA: 20 mM Tris-HCl pH 8.5, 200 mM NaCl, 1 mM DTT, 5% glycerol, 4 C, 30 min, FP: 20 mM Tris pH 8.0, 50 mM NaCl, room temperature, 5 nM …. Background: In fluorescence polarisation assays a small probe gives low polarisation when free and higher when bound to something large.

Data set [10] deals with T1, ScoMcrA-SBD. The data set can be described thus: crystal structure (1.70 A); EMSA: 20 mM Tris-HCl pH 8.5, 200 mM NaCl, 1 mM DTT, 5% glycerol, 4 C, 30 min; FP: 20 mM Tris pH 8.0, 50 mM NaCl, 1 mM DTT, 5% glycerol, room temperature, 5 nM FAM-DNA. Particulars: protein: recombinant; tags: MBP tag removed by TEV; blunt.
Data set [11] concerns the molecule itself. Nature of the data set: crystal structure; full-length ScoMcrA alone, 3.15 Å, space group P212121, six molecules in each asymmetric unit.
Data set [12] concerns the target T1, ScoMcrA-SBD. The data set can be described thus: EMSA; EMSA: 20 mM Tris-HCl pH 8.5, 200 mM NaCl, 1 mM DTT, 5% glycerol, 4 C, 30 min; FP: 20 mM Tris pH 8.0, 50 mM NaCl, 1 mM DTT, 5% glycerol, room temperature, 5 nM FAM-DNA. The settings on record: protein: recombinant; tags: MBP tag removed by TEV; blunt.
The target of a further data set is T2, ScoMcrA FL (Streptomyces coelicolor, UniProt Q9L0M9 1-560).
T2 sequence: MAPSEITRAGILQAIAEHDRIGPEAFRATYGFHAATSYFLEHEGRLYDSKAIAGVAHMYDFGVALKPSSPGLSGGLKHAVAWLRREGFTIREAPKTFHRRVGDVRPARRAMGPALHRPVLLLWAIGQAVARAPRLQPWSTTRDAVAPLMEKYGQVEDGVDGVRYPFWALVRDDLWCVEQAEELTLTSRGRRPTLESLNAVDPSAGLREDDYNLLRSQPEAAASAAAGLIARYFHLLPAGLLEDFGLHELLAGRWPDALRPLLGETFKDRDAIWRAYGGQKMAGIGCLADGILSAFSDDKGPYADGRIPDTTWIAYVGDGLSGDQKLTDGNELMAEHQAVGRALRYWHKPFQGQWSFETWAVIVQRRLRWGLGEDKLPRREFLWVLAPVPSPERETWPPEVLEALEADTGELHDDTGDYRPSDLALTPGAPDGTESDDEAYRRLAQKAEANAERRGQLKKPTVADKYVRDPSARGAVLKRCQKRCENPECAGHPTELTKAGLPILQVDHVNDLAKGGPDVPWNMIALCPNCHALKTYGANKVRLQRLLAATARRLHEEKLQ
The description is as above. Particulars: protein: recombinant; tags: MBP tag removed by TEV; chain copies: 2; blunt.

Data set [13] concerns the molecule itself. The data set can be described thus: crystal structure; ScoMcrA-SBD-SRA (91-442) with 10 bp Rp PT-DNA, 3.30 Å, space group I4122; the two protomers are related by the crystallographic two-fold rotation axis.
The target of another data set is T3, ScoMcrA-SBD-SRA (Streptomyces coelicolor, UniProt Q9L0M9 91-442).
T3 sequence: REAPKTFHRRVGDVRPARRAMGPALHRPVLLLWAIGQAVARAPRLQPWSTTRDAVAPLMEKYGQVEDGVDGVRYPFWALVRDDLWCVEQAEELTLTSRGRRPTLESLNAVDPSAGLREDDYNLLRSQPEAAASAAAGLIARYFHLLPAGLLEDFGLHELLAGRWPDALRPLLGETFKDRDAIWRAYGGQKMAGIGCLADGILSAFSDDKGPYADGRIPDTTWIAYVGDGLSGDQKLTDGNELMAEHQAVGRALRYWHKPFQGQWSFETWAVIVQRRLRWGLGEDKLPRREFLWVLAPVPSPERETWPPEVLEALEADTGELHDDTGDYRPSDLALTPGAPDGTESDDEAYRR
The data set can be described thus: crystal structure (3.30 A); EMSA: 20 mM Tris-HCl pH 8.5, 200 mM NaCl, 1 mM DTT, 5% glycerol, 4 C, 30 min; FP: 20 mM Tris pH 8.0, 50 mM NaCl, 1 mM DTT, 5% glycerol, room temperature, 5 nM FAM-DNA. Particulars: protein: recombinant; tags: MBP tag removed by TEV; chain copies: 2; blunt.

In the case of 5-FAM hemi-PT-DNA (FP), the Kd (commonly the equilibrium constant for the complex coming apart) with ScoMcrA-SBD [1] (one strand) stood at 1.47 µM.

Turning to Rp PT-DNA, GGCC core (EMSA), the binding signal (% reduction vs WT) was determined as 38 in data set [2]; 94 in data set [3]; 89 in data set [4]; 82 in [5]; 65 in [6]; 51 in data set [7]. Besides, the binding signal (% reduction vs WT) in data set [8] was 72.

Take 5-FAM PT-DNA, GGCC core (FP): the dissociation constant Kd is 1.55 µM in [9] and 1.32 µM with ScoMcrA-SBD [1].

B1: GGCC8 Rp (dsDNA)
DNA 1: CCGGCCGG
DNA 2: CCGGCCGG
modifications: Rp phosphorothioate between G3 and G4, both strands
Turning to B1, the binding result with ScoMcrA-SBD [10] is given as “binds”.

B2: full-length Streptomyces coelicolor ScoMcrA (ScoA3McrA), DNA phosphorothioation-dependent Type-IV restriction endonuclease (enzyme, UniProt Q9L0M9 1-560, looked up)
chain: MAPSEITRAGILQAIAEHDRIGPEAFRATYGFHAATSYFLEHEGRLYDSKAIAGVAHMYDFGVALKPSSPGLSGGLKHAVAWLRREGFTIREAPKTFHRRVGDVRPARRAMGPALHRPVLLLWAIGQAVARAPRLQPWSTTRDAVAPLMEKYGQVEDGVDGVRYPFWALVRDDLWCVEQAEELTLTSRGRRPTLESLNAVDPSAGLREDDYNLLRSQPEAAASAAAGLIARYFHLLPAGLLEDFGLHELLAGRWPDALRPLLGETFKDRDAIWRAYGGQKMAGIGCLADGILSAFSDDKGPYADGRIPDTTWIAYVGDGLSGDQKLTDGNELMAEHQAVGRALRYWHKPFQGQWSFETWAVIVQRRLRWGLGEDKLPRREFLWVLAPVPSPERETWPPEVLEALEADTGELHDDTGDYRPSDLALTPGAPDGTESDDEAYRRLAQKAEANAERRGQLKKPTVADKYVRDPSARGAVLKRCQKRCENPECAGHPTELTKAGLPILQVDHVNDLAKGGPDVPWNMIALCPNCHALKTYGANKVRLQRLLAATARRLHEEKLQ
notes: ScoMcrA (ScoA3McrA), Streptomyces coelicolor, full length; head, SBD, SRA and HNH domains; the model reaches residue 560; The structure was phased by SAD with a selenomethionine derivative of the full-length protein; Cloned into pSJ8; also called FL ScoMcrA; source: E. coli BL21(DE3), purified (HisTrap, TEV cleavage, heparin, Source 15Q, Superdex 200)
Consider B2, for which the stoichiometry N (usually the number of molecules, sites or subunits per partner or assembly) in [11] was 2.

B3: hemi-PT-DNA (S10hemi-S/U10hemi-A) (dsDNA)
DNA 1: CCCGGCCGCC
DNA 2: GGCGGCCGGG
modifications: Rp phosphorothioate between G4 and G5 of strand 1 only
B3: the binding result with ScoMcrA-SBD [12] and in the data set with ScoMcrA FL was “binds” in each case.

B4: SBD-SRA domains of ScoMcrA (residues 91-442) (domain or fragment, Streptomyces coelicolor, UniProt Q9L0M9 91-442, looked up)
chain: REAPKTFHRRVGDVRPARRAMGPALHRPVLLLWAIGQAVARAPRLQPWSTTRDAVAPLMEKYGQVEDGVDGVRYPFWALVRDDLWCVEQAEELTLTSRGRRPTLESLNAVDPSAGLREDDYNLLRSQPEAAASAAAGLIARYFHLLPAGLLEDFGLHELLAGRWPDALRPLLGETFKDRDAIWRAYGGQKMAGIGCLADGILSAFSDDKGPYADGRIPDTTWIAYVGDGLSGDQKLTDGNELMAEHQAVGRALRYWHKPFQGQWSFETWAVIVQRRLRWGLGEDKLPRREFLWVLAPVPSPERETWPPEVLEALEADTGELHDDTGDYRPSDLALTPGAPDGTESDDEAYRR
notes: ScoMcrA (ScoA3McrA), Streptomyces coelicolor, SBD-SRA domains, residues 91-442; Crystallised in complex with a 10 bp Rp PT-DNA; the dimer is formed by a crystallographic two-fold axis; also called ScoMcrA-SBD-SRA; source: E. coli BL21(DE3), purified (HisTrap, TEV cleavage, heparin, Source 15Q, Superdex 200)
As to B4, in data set [13], the “stoichiometry N” value is 2.

B5: GGCC10 Rp (dsDNA)
DNA 1: CCCGGCCGGG
DNA 2: CCCGGCCGGG
modifications: Rp phosphorothioate between G4 and G5, both strands
With B5, in the data set with ScoMcrA-SBD-SRA, the binding result is listed as “binds”.

The values above are taken from paper PMC6224610, “Structural basis for the recognition of sulfur in phosphorothioated DNA” (Nature Communications, 2018).
